Source: patent US20040116342A1 (INSTITUT PASTEUR, published 2004)
Where no end group is shown, it is not given here.

Legend:
[1] = biological target: T1, modified tritiated Substance P: [(3,4 3H) Pro2-Sar9-Met(O2)11]-Substance P, P20366
T1 chain: RPKPQQFFGLM

[2] = biological target: T2, rat Neutral EndoPeptidase 24-11 (NEP), membrane-bound, in rat tissue membrane preparations and fresh tissue … (rat, UniProt P07861 2-750); experiment: cell-based or functional assay
T2 sequence (looked up): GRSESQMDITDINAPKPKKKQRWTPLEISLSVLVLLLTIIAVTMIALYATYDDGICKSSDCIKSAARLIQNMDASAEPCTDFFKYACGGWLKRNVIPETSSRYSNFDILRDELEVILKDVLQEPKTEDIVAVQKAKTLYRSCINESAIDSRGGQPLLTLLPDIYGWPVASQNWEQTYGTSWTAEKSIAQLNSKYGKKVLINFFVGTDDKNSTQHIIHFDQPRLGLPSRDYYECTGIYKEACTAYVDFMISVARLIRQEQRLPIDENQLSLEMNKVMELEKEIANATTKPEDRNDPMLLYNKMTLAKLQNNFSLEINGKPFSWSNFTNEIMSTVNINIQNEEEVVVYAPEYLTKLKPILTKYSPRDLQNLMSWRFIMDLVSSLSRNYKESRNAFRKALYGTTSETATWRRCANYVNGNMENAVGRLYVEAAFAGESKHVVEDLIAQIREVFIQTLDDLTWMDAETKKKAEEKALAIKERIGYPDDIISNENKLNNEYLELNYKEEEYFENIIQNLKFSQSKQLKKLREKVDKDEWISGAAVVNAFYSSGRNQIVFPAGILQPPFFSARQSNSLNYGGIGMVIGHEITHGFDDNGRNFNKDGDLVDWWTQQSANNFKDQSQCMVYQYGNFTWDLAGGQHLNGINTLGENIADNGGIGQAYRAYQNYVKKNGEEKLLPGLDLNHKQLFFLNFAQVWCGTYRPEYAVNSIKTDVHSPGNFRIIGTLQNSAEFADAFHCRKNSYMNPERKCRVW

[3] = biological target: T3, purified rabbit renal NEP (rabbit, UniProt P08049 2-750, limits assumed); experiment: cell-based or functional assay
T3 sequence (looked up): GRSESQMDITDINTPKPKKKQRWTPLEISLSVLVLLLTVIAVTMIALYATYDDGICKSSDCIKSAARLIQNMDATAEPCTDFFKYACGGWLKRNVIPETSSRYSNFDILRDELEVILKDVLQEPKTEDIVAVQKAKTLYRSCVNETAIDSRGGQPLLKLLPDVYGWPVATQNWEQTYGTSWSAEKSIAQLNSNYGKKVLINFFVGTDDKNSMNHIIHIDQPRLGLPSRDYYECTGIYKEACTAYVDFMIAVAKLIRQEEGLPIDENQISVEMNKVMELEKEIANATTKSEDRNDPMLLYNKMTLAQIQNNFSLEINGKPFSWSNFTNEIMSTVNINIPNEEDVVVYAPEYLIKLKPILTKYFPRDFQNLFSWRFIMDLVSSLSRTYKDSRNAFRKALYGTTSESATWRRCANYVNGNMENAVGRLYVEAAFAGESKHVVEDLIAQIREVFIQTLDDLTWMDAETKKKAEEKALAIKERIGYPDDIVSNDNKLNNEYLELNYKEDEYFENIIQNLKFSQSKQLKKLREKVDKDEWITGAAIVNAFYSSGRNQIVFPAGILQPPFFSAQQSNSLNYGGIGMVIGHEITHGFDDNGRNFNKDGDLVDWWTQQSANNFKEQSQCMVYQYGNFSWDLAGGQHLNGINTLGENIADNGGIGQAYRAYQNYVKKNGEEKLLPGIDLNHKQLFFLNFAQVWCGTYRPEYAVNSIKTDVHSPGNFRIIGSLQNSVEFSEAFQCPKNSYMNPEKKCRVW

[4] = biological target: T4, SMR1-QHNPR (SMR1-Pentapeptide)
T4 chain: QHNPR

B1: purified rabbit renal NEP (protein)
chain: GRSESQMDITDINTPKPKKKQRWTPLEISLSVLVLLLTVIAVTMIALYATYDDGICKSSDCIKSAARLIQNMDATAEPCTDFFKYACGGWLKRNVIPETSSRYSNFDILRDELEVILKDVLQEPKTEDIVAVQKAKTLYRSCVNETAIDSRGGQPLLKLLPDVYGWPVATQNWEQTYGTSWSAEKSIAQLNSNYGKKVLINFFVGTDDKNSMNHIIHIDQPRLGLPSRDYYECTGIYKEACTAYVDFMIAVAKLIRQEEGLPIDENQISVEMNKVMELEKEIANATTKSEDRNDPMLLYNKMTLAQIQNNFSLEINGKPFSWSNFTNEIMSTVNINIPNEEDVVVYAPEYLIKLKPILTKYFPRDFQNLFSWRFIMDLVSSLSRTYKDSRNAFRKALYGTTSESATWRRCANYVNGNMENAVGRLYVEAAFAGESKHVVEDLIAQIREVFIQTLDDLTWMDAETKKKAEEKALAIKERIGYPDDIVSNDNKLNNEYLELNYKEDEYFENIIQNLKFSQSKQLKKLREKVDKDEWITGAAIVNAFYSSGRNQIVFPAGILQPPFFSAQQSNSLNYGGIGMVIGHEITHGFDDNGRNFNKDGDLVDWWTQQSANNFKEQSQCMVYQYGNFSWDLAGGQHLNGINTLGENIADNGGIGQAYRAYQNYVKKNGEEKLLPGIDLNHKQLFFLNFAQVWCGTYRPEYAVNSIKTDVHSPGNFRIIGSLQNSVEFSEAFQCPKNSYMNPEKKCRVW
In the case of B1, the “initial velocity of substance P hydrolysis by purified rabbit renal NEP (Vi)” value [1] is reported as “Vi=140 pM/min/µg enzyme”.

In the case of QHNPR (also: Gln form interconverts with pGlu form by N-terminal cyclization) [SMR1-QHNPR (SMR1-Pentapeptide)], the “IC50 (concentration of the inhibitor reducing by half the degradation of 3H-substance P) on rat spinal cord membrane preparations” value [2] is reported as ~100 nM, the “IC50 of inhibition of 3H substance-P degradation by rat kidney membranes” value [2] is reported as 0.5 to 1 µM and the “inhibitory potency (IC50) with rat spinal NEP” value [2] is reported as 0.4 µM. For the same binder, the “inhibitory potency (IC50) with purified rabbit renal NEP and synthetic specific fluorogenic substrate” value [3] was 0.6 µM.

B2: rat Neutral EndoPeptidase 24-11 (NEP), membrane-bound, in rat tissue membrane preparations and fresh tissue slices (protein)
chain: GRSESQMDITDINAPKPKKKQRWTPLEISLSVLVLLLTIIAVTMIALYATYDDGICKSSDCIKSAARLIQNMDASAEPCTDFFKYACGGWLKRNVIPETSSRYSNFDILRDELEVILKDVLQEPKTEDIVAVQKAKTLYRSCINESAIDSRGGQPLLTLLPDIYGWPVASQNWEQTYGTSWTAEKSIAQLNSKYGKKVLINFFVGTDDKNSTQHIIHFDQPRLGLPSRDYYECTGIYKEACTAYVDFMISVARLIRQEQRLPIDENQLSLEMNKVMELEKEIANATTKPEDRNDPMLLYNKMTLAKLQNNFSLEINGKPFSWSNFTNEIMSTVNINIQNEEEVVVYAPEYLTKLKPILTKYSPRDLQNLMSWRFIMDLVSSLSRNYKESRNAFRKALYGTTSETATWRRCANYVNGNMENAVGRLYVEAAFAGESKHVVEDLIAQIREVFIQTLDDLTWMDAETKKKAEEKALAIKERIGYPDDIISNENKLNNEYLELNYKEEEYFENIIQNLKFSQSKQLKKLREKVDKDEWISGAAVVNAFYSSGRNQIVFPAGILQPPFFSARQSNSLNYGGIGMVIGHEITHGFDDNGRNFNKDGDLVDWWTQQSANNFKDQSQCMVYQYGNFTWDLAGGQHLNGINTLGENIADNGGIGQAYRAYQNYVKKNGEEKLLPGLDLNHKQLFFLNFAQVWCGTYRPEYAVNSIKTDVHSPGNFRIIGTLQNSAEFADAFHCRKNSYMNPERKCRVW
In the case of B2, the “fold rise of the apparent Km of the enzyme for substrate (substance P), rat renal membranes” value [4] is reported as “raising the apparent Km of the enzyme for substrate by 2-5 fold”.
